Test results from the Human Domainome abundance scans (Beltran et al. 2025).

B1: Segment polarity protein dishevelled homolog DVL-3, residues 2 to 81; numbered along this chain, Q92997 (parent)
chain: GETKIIYHLDGQETPYLVKLPLPAERVTLADFKGVLQRPSYKFFFKSMDDDFGVVKEEISDDNAKLPCFNGRVVSWLVSA

Variants of: B1
Assay: abundance fitness (aPCA) (normalised: wild type 0, dead -1); higher = more abundant; growth selection in yeast, the domain comes from the species named
Conditions: Homo sapiens

Abundance fitness, by site and new letter:
P15: Y -0.743, H -0.348, N -0.529, Q -0.064, G -0.47, D -0.464, R -0.406, L -0.654, T -0.058, A -0.142, I -0.863, E 0.136, F -0.891, C -0.33, S -0.078
P21: D -0.253, A -0.169, F -0.588, E -0.293, C -0.391, I -0.561, H -0.196, G -0.56
L20: V 0.104, T -0.836, S -0.664, G -0.625, R -0.779, E -0.615, A -1.06, I 0.101, W -0.472, Q -1.09, M -0.679, K -0.666, P -0.954, C -0.632, D -0.68, F -0.336
V18: N -0.329, K -0.601, S -0.906, M -0.247, C -0.558, H -0.298, F -0.707, G -0.612, L -0.054, R -0.717, D -0.694, T -0.33, A -0.264, E -0.68, Q -0.872, I -0.025, W -0.643, Y -0.589
Y16: T -0.15, I 0.216, K 0.074, N -0.157, L 0.025, C 0.041, P -0.869, Q 0.16, M 0.096, F -0.082, H 0.23, V -0.115, W -0.572, S -0.213, D -0.708, E -0.167, A -0.593
T14: V -0.128, E 0.215, M -0.265, W -0.529, Q 0.114, P -0.129, H 0.281, G -0.296, I 0.024, Y -0.955, K 0.286, L -0.328, R 0.096, D 0.038, F -0.092, S -0.104, N -0.049, C -0.112, A -0.123
Q12: M 0.063, G 0.129, L -0.305, S 0.263, R -0.053, V -0.012, P -0.638, T -0.106, E 0.219, D 0.386, H 0.134, I 0.083, A -0.129, Y -0.019, W -0.612, K -0.088, N 0.269, C 0.126, F -0.227
E13: C -0.251, L -0.42, R -0.092, K 0.064, F -0.549, G -0.348, W -0.351, I -0.184, Y -0.526, S -0.107, M -0.047, T -0.129, V -0.426, A -0.183, H -0.473, D -0.129, P -0.011, N -0.222, Q -0.034
L17: A -0.098, P -0.907, Y 0.258, I 0.447, H 0.335, C 0.347, E 0.75, W 0.022, R -0.337, G -0.434, D -0.677, T 0.479, Q 0.271, F 0.328, M 0.428, S 0.245, K -0.367, N -0.482
K19: T 0.271, Y -0.154, V 0.383, H -0.07, P -0.797, I 0.314, C -0.024, A -0.143, N -0.133, F -0.215, R -0.132, G -0.635, D -0.547, S 0.157, M 0.058, E -0.034, Q -0.297, W -0.357
